Test results from the Human Domainome abundance scans (Beltran et al. 2025).
± gives the uncertainty stated by the source.

B1: Apoptosis-associated speck-like protein containing a CARD, residues 114 to 194; numbered along this chain, Q9ULZ3 (parent)
chain: FIDQHRAALIARVTNVEWLLDALYGKVLTDEQYQAVRAEPTNPSKMRKLFSFTPAWNWTCKDLLLQALRESQSYLVEDLER

Variants of: B1
Test: abundance fitness (aPCA) (normalised: wild type 0, dead -1); higher = more abundant; growth selection in yeast, the domain comes from the species named
Conditions: Homo sapiens

Abundance fitness, by site and new letter:
E39: L -0.303 ± 0.06, M -0.129 ± 0.1, N -0.26 ± 0.24, P -0.914 ± 0.2, Q -0.293 ± 0.11, R -0.692 ± 0.075, S -0.842 ± 0.11, T -0.789 ± 0.17, V -0.815 ± 0.097, W -0.946 ± 0.19, Y -0.49 ± 0.18
P40: A -0.256 ± 0.068, C -0.434 ± 0.096, D -0.38 ± 0.16, E -0.257 ± 0.086, F -0.912 ± 0.28, G -0.425 ± 0.042, I -0.339 ± 0.14, K -0.123 ± 0.086, L -0.587 ± 0.074, M -0.896 ± 0.24, N -0.419 ± 0.18, R -0.167 ± 0.041, S -0.291 ± 0.063, T -0.202 ± 0.07, W -0.832 ± 0.12, Y -0.633 ± 0.19
T41: A -0.52 ± 0.081, C -0.28 ± 0.077, E -0.782 ± 0.17, F -1.2 ± 0.31, G -0.484 ± 0.048, K -0.755 ± 0.18, L -0.834 ± 0.11, M -0.701 ± 0.13, N 0.045 ± 0.1, P -0.845 ± 0.15, Q -0.517 ± 0.14, R -0.907 ± 0.1, S -0.199 ± 0.057, V -0.707 ± 0.087, W -0.653 ± 0.098, Y -0.519 ± 0.24
N42: A -0.188 ± 0.076, C -0.616 ± 0.1, D -0.221 ± 0.099, E -0.337 ± 0.085, F -0.372 ± 0.14, G -0.331 ± 0.05, H -0.624 ± 0.14, I 0.082 ± 0.31, K -0.74 ± 0.24, L -0.337 ± 0.061, M -0.48 ± 0.096, P -0.306 ± 0.077, Q -0.488 ± 0.11, R -0.562 ± 0.057, S -0.445 ± 0.061, T -0.336 ± 0.11, V -0.596 ± 0.082, W -0.582 ± 0.076, Y -0.896 ± 0.36
P43: A -0.045 ± 0.054, C -0.147 ± 0.08, E 0.07 ± 0.072, F -0.395 ± 0.15, G -0.27 ± 0.052, H -0.221 ± 0.13, I -0.566 ± 0.19, K -0.114 ± 0.086, L -0.263 ± 0.046, M -0.138 ± 0.07, N -0.241 ± 0.11, Q 0.065 ± 0.097, R -0.091 ± 0.039, S -0.061 ± 0.046, T 0.04 ± 0.068, V -0.096 ± 0.053, W -0.313 ± 0.068, Y -0.593 ± 0.13
S44: A 0.116 ± 0.044, C -0.268 ± 0.089, D 0.091 ± 0.085, F -0.842 ± 0.2, G -0.063 ± 0.042, I -0.398 ± 0.33, K -0.265 ± 0.1, L 0.031 ± 0.05, M 0.024 ± 0.089, N -0.511 ± 0.36, P -0.868 ± 0.14, Q 0.061 ± 0.061, R -0.064 ± 0.054, T -0.097 ± 0.066, V -0.947 ± 0.12, W -0.531 ± 0.073, Y -1.01 ± 0.28
K45: A -0.615 ± 0.083, C -0.887 ± 0.16, D -1 ± 0.27, E -0.846 ± 0.19, G -0.768 ± 0.072, H -1.06 ± 0.48, L -0.918 ± 0.11, M -0.34 ± 0.13, P -0.803 ± 0.15, Q -0.695 ± 0.19, R -0.317 ± 0.053, S -0.273 ± 0.07, T -0.764 ± 0.13, V -0.609 ± 0.073, W -0.852 ± 0.24
M46: A -0.679 ± 0.056, C -1.02 ± 0.27, D -1.03 ± 0.32, E -0.831 ± 0.16, F -0.807 ± 0.15, G -0.949 ± 0.089, I -0.778 ± 0.32, L -0.298 ± 0.06, P -0.542 ± 0.11, Q -0.717 ± 0.22, R -0.653 ± 0.068, S -0.933 ± 0.13, T -0.77 ± 0.14, V -0.353 ± 0.054, W -0.696 ± 0.12, Y -0.707 ± 0.13
R47: A 0.013 ± 0.055, C -0.139 ± 0.079, D -0.517 ± 0.16, E 0.037 ± 0.081, F -0.786 ± 0.18, G -0.62 ± 0.061, H -0.452 ± 0.12, I -0.254 ± 0.11, K -0.008 ± 0.087, L -0.319 ± 0.052, M -0.166 ± 0.083, N -0.214 ± 0.17, P -0.814 ± 0.12, Q -0.051 ± 0.072, S -0.197 ± 0.052, T -0.04 ± 0.076, V -0.155 ± 0.052, W -0.497 ± 0.066, Y -0.872 ± 0.31
K48: A -0.745 ± 0.081, C -0.667 ± 0.14, D -0.745 ± 0.26, E -0.963 ± 0.21, F -0.585 ± 0.12, G -0.877 ± 0.096, H -0.655 ± 0.34, I -0.779 ± 0.32, L -0.347 ± 0.063, M -0.221 ± 0.079, N -0.802 ± 0.22, P -0.71 ± 0.11, Q -0.674 ± 0.16, R -0.185 ± 0.051, S -0.891 ± 0.12, T -0.635 ± 0.12, V -0.469 ± 0.063, W -0.35 ± 0.088, Y -1.05 ± 0.3
L49: A -0.93 ± 0.11
